Test results as given in patent publication US20160032004A1 (published 2016).

What was measured:
[1] = biological target: T1, CD74 (invariant chain, Ii) (human, UniProt P04233 1-296); experiment: cell binding assay on antigen-positive cells
T1 construct: whole, on cells; Endogenous antigen of human cancer cell lines; measured on the surface only or on surface plus cytoplasm (permeabilized cells)
T1 sequence (looked up): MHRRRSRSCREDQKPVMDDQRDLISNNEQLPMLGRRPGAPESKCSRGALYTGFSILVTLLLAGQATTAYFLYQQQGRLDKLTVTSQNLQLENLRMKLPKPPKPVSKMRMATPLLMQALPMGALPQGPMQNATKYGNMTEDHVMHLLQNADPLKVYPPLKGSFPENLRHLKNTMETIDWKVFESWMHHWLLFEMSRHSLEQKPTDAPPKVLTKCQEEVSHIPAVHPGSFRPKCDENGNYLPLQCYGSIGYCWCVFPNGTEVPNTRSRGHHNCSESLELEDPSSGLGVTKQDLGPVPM

[2] = biological target: T1, CD74 (invariant chain, Ii); experiment: flow cytometry, permeabilized Raji cells
[3] = biological target: T1, CD74 (invariant chain, Ii); experiment: flow cytometry, membrane-only, Raji cells
[4] = biological target: T1, CD74 (invariant chain, Ii); experiment: flow cytometry, permeabilized A-375 cells
[5] = biological target: T1, CD74 (invariant chain, Ii); experiment: flow cytometry, permeabilized HuH-7 cells
[6] = biological target: T1, CD74 (invariant chain, Ii); experiment: flow cytometry, membrane-only, A-375 cells
[7] = biological target: T1, CD74 (invariant chain, Ii); experiment: flow cytometry, membrane-only, HuH-7 cells
[8] = biological target: T1, CD74 (invariant chain, Ii); experiment: flow cytometry, permeabilized Hep-G2 cells
[9] = biological target: T1, CD74 (invariant chain, Ii); experiment: flow cytometry, permeabilized Hs746T cells
[10] = biological target: T1, CD74 (invariant chain, Ii); experiment: flow cytometry, membrane-only, Hep-G2 cells
[11] = biological target: T1, CD74 (invariant chain, Ii); experiment: flow cytometry, membrane-only, Hs746T cells
[12] = biological target: T1, CD74 (invariant chain, Ii); experiment: flow cytometry, permeabilized Capan-1 cells
[13] = biological target: T1, CD74 (invariant chain, Ii); experiment: flow cytometry, permeabilized NCI-N87 cells
[14] = biological target: T1, CD74 (invariant chain, Ii); experiment: flow cytometry, membrane-only, Capan-1 cells
[15] = biological target: T1, CD74 (invariant chain, Ii); experiment: flow cytometry, membrane-only, NCI-N87 cells

Kd [1]: 0.77 nM
MFI Ratio hLL1:bkgd (surface and cytoplasmic) [2]: 28.6
MFI Ratio hLL1:bkgd (surface) [3]: 19.6
MFI Ratio hLL1:bkgd (surface and cytoplasmic) [4]: 30.8
MFI Ratio hLL1:bkgd (surface and cytoplasmic) [5]: 28.5
MFI Ratio hLL1:bkgd (surface) [6]: 5.3
MFI Ratio hLL1:bkgd (surface) [7]: 1.6
MFI Ratio hLL1:bkgd (surface and cytoplasmic) [8]: 31.2
MFI Ratio hLL1:bkgd (surface and cytoplasmic) [9]: 28.8
MFI Ratio hLL1:bkgd (surface) [10]: 1.5
MFI Ratio hLL1:bkgd (surface) [11]: 2.1
MFI Ratio hLL1:bkgd (surface and cytoplasmic) [12]: 49.6
MFI Ratio hLL1:bkgd (surface and cytoplasmic) [13]: 36.7
MFI Ratio hLL1:bkgd (surface) [14]: 1.8
MFI Ratio hLL1:bkgd (surface) [15]: 1.3
B1: Milatuzumab (humanized anti-CD74 antibody, hLL1) (antibody, V domains shown)
VH: QVQLQQSGSELKKPGASVKVSCKASGYTFTNYGVNWIKQAPGQGLQWMGWINPNTGEPTFDDDFKGRFAFSLDTSVSTAYLQISSLKADDTAVYFCSRSRGKNEAWFAYWGQGTLVTVSS
VL: DIQLTQSPLSLPVTLGQPASISCRSSQSLVHRNGNTYLHWFQQRPGQSPRLLIYTVSNRFSGVPDRFSGSGSGTDFTLKISRVEAEDVGVYFCSQSSHVPPTFGAGTRLEIK
